Experimental findings from US20070287163A1 (CRUCELL HOLLAND B V, published 2007) are described below.

This test concerns the target T1, CD46 (human (HEp-2 cells), UniProt P15529).
T1 construct: endogenous, cell-surface biotinylated, solubilised in Triton X-100 lysate; The bands in the CR2300 lane were not separately identified
T1 sequence (antigen, looked up): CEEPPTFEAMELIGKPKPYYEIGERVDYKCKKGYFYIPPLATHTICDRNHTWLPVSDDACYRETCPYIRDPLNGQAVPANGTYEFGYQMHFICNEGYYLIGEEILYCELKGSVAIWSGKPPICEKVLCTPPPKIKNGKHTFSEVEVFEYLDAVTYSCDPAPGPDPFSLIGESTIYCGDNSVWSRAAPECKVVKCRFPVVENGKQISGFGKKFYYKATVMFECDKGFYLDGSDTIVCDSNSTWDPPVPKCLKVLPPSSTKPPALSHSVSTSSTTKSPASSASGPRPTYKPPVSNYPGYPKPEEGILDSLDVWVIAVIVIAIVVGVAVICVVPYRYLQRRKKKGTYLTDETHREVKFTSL
Kind of test: immunoprecipitation from surface-biotinylated HEp-2 lysate, streptavidin-HRP blot. Here is the method:
To identify whether CR2407 reacted with a membrane extractable antigen, the cell surface of 10⁸ HEp-2 cells were biotinylated during 1 hour at room temperature with a final concentration of 2 mg sulfo-NHS-LC-LC-biotin in physiological buffer (0.2 M phosphate buffer containing 0.12 M NaCl, pH 7.4). Subsequently, the remaining free biotin was blocked during an incubation of 30 minutes at room temperature with 10 mM glycine in physiological buffer. After labeling, the cells were washed with cold physiological buffer and solubilized for 30 minutes on ice at a concentration of 3×10⁷ cells/ml in TX-100 lysis buffer (1% Triton X-100, 150 mM NaCl, 50 mM Tris pH 7.4, protease inhibitors (Roche)). The unsoluble material was removed by centrifugation for 30 minutes at 4° C. at 20,000*g.
Hereafter, the biotinylated solubilized lysates were pre-cleared with protein-A beads for 2 hours at 4° C. 4 μg of CR2407 and the negative control antibody CR2428 and positive control antibody CR2300 (directed against CD46) were coupled to protein A beads at room temperature. Next, the pre-cleared samples were incubated with the above IgG's coupled to protein-A beads for 2 hours at 4° C. […] After blotting on PVDF membranes, the biotinylated proteins were detected with streptavidin-HRP (Amersham) and enhanced chemoluminescence (Amersham).

B1: CR2407 IgG1 (antibody, V domains shown)
VH: EVQLVESGGGLVQPGGSLRLSCAASGFTFSSYAMSWVRQAPGKGLEWVSAISGSGGSTYYADSVKGRFTISRDNSKDTLYLQMSSLKTEDTAVYYCARGSLLQFWGQGTLVTVSS
VL: SSELTQDPAVSVALGQTVRITCQGDSLRSYYASWYQQKPGQAPVLVIYGKNNRPSGIPDRFSGSSSGNTASLTITGAQAEDEADYYCNSRDSSGNHVVFGGGTKLTVLG
notes: also called anti-ALCAM IgG1
Consider B1, for which the binding result is reported as “no binding (tested: 4 ug IgG on protein-A beads)”.
